Results reported in PMC4439027, “Selection of scFv Antibody Fragments Binding to Human Blood versus Lymphatic Endothelial Surface Antigens by Direct Cell Phage Display” (PLoS ONE, 2015).

Key:
[1] = target: T1, CD146 / MCAM on BECs and melanoma cells (Homo sapiens, UniProt P43121-1); test: immunostaining of cells or tissue; immunofluorescence on fixed cells (BECs, LECs, HDMECs, melanoma cells) and human skin cryosections, co-staining with anti-podoplanin or commercial anti-CD146 antibody; details: one partner purified
T1 construct: also called native CD146; CD146 expressed by BECs, melanoma cells; source: endogenous, on BECs and melanoma cell lines A375, CRL1676, HTB71 (fixed monolayers)

[2] = target: T2, Recombinant human CD146 comprising the extracellular Met1-Gly559 portion of the protein precursor, C-terminal … (Homo sapiens, UniProt P43121-1); test: ELISA; plates coated with recombinant CD146 or BSA at 100, 10 and 1 ng/ml overnight at 4°C, blocked with TBST/ 5% BSA; scFv or scFv-Fc added serially diluted, RT overnight; HRP-conjugated detection antibodies, absorbance at 450 nm; details: both partners purified
T2 construct: signal peptide in the construct; human CD146 / MCAM / MUC18, extracellular Met1-Gly559 portion of the protein precursor (NP_006491.2); also called recombinant CD146; extracellular domain of recombinant human CD146; source: bought: Sino Biological Inc., Nr; 10115-H08H

[3] = target: T1, CD146 / MCAM on BECs and melanoma cells; test: ELISA; whole cell ELISA on confluent monolayers in 96-well plates fixed with PBS/ 1% PFA; purified scFv or scFv-Fc added; absorbance at 450 nm; details: one partner purified
[4] = target: T3, CD146 of BEC lysate treated with PNGase F (N-linked oligosaccharides removed) (Homo sapiens, UniProt P43121-1, oligosaccharides removed from N-linked glycoprotein with PNGase F); test: co-IP; BEC lysate incubated with scFv or scFv-Fc (or Fc only) at 4°C overnight, captured on Protein A/G resin; Western blot in reducing conditions with commercial anti-CD146 antibody; lysates with or without PNGase F, before or after addition of the scFv; details: one partner purified
T3 construct: human CD146 / MCAM (NP_006491), endogenous in primary human blood endothelial cells, after PNGase F; band shifted down to 95 kDa; PNGase F was added before or after the scFv; also called deglycosylated CD146; source: endogenous, BEC lysate, treated with PNGase F (3 hrs at 37°C)
T3 sequence (P43121 24-646): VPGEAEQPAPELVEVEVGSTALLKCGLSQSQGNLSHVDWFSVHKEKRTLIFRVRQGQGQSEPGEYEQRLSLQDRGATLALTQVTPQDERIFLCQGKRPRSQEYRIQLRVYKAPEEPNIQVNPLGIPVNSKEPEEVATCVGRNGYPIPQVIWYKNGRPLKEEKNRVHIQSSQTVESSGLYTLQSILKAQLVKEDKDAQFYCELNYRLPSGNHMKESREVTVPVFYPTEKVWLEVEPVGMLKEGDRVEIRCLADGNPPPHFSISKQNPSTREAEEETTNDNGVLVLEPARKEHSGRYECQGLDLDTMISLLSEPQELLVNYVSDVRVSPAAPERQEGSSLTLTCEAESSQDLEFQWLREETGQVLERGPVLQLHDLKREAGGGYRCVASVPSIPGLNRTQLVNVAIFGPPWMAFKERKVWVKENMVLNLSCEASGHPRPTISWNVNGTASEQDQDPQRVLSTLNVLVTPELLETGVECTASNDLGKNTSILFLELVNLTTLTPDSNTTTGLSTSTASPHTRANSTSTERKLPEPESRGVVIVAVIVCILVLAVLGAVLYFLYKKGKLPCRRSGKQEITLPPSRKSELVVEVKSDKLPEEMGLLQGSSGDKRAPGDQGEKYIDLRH

T1 sequence (P43121 24-646): as above
T2 sequence (P43121 24-559): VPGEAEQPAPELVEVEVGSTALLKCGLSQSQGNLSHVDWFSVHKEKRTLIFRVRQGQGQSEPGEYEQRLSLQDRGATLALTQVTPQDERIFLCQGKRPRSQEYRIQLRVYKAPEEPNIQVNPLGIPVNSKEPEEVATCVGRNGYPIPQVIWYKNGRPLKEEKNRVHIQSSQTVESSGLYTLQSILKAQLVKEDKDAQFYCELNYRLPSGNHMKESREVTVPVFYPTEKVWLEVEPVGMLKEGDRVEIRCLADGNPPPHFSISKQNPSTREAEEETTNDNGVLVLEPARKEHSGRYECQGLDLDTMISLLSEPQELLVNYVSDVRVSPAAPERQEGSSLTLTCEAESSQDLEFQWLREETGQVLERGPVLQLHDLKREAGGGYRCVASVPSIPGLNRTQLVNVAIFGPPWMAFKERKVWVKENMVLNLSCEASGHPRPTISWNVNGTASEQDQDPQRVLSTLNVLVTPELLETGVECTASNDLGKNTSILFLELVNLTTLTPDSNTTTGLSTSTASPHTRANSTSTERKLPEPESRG

B1: scFv-Fc B6-11 fusion antibody (Fc fusion, human)
VH: EVQLVESGGGLVQGGSLRLSCAASGFTFSSYAMSWVRQAPGKGLEWVSAISGSGGSTYYADSVKGRFTISRDNSKNTLYLQMNSLRAEDTAVYYCAKSSNVRTFDYWGQGTLVTVSR
VL: SSELTQDPAVSVALGQTVRITCQGDSLRSYYASWYQQKPGQAPVLVIYGKNNRPSGIPDRFSGSSSGNTASLTITGAQAEDEADYYCNSSTPLSAPVVFGGGTKLTVL
notes: Runs as a dimer under non-reducing SDS-PAGE; the Fc is that of the vector pFUSE-mIgG2B-Fc2 (Invivogen); also called scFv-mFc fusion antibody; source: HEK293, transfected (pFUSE-mIgG2B-Fc2), purified from culture supernatants (proteinAG UltraLink Resin); not shown: Fc (murine IgG2B), C-terminal, kept
[1]
  binding result: binds
[2]
  binding result: binds

B2: scFv B6-11 (scFv, V domains shown)
VH: EVQLVESGGGLVQGGSLRLSCAASGFTFSSYAMSWVRQAPGKGLEWVSAISGSGGSTYYADSVKGRFTISRDNSKNTLYLQMNSLRAEDTAVYYCAKSSNVRTFDYWGQGTLVTVSR
VL: SSELTQDPAVSVALGQTVRITCQGDSLRSYYASWYQQKPGQAPVLVIYGKNNRPSGIPDRFSGSSSGNTASLTITGAQAEDEADYYCNSSTPLSAPVVFGGGTKLTVL
notes: VH of scFv B6-11 (ETH-2 library, human germline heavy chain segment with randomised CDR3); linker region; VL of scFv B6-11 (ETH-2 library, human germline light chain segment with randomised CDR3); Selected from the semi-synthetic human ETH-2 phage library on BECs (round 6); His-tag and Flag-tag come from phagemid pDN332; also called scFv B6-11 antibody; anti-CD146 scFv B6-11; source: E. coli TG1, …
[3]
  binding result: binds
[2]
  binding result: binds
[4]
  binding result: binds
